Data from patent US20200157236A1 (CELLDEX THERAPEUTICS, published 2020).

B1: Ab384 (antibody, V domains shown)
VH: EVQLVQSGAEVKKPGSSVKLSCKASGYTFTSYWMHWVRQAPGQGLEWIGYIKPSSGYTKYNQKFKDKATLTADKSTSTAYMELSSLRSEDTAVYYCARDYYGSSSWFAYWGQGTLVTVSS
VL: EIVMTQSPAFMSVTVGEKVTITCKASQNVGTNVAWYQQKPDQSPKALIYSASYRYSGVPSRFSGSGSGTDFTLTISSLEAEDAATYYCQQYNSYPYMYTFGQGTKLEIK
notes: humanized
B2: Ab359 (antibody, V domains shown)
VH: QVQLVQSGAEVAKPGSSVKLSCKASGYTFTSYWMHWVKQAPGQGLEWIGYIKPSSGYTKYNQKFKDKATLTADKSTSTAYMELSSLRSEDTAVYYCARDYYGSSSWFAYWGQGTLVTVSS
VL: EIVMTQSPAFLSVTPGEKVTITCKASQNVGTNVAWYQQKPDQAPKALIYSASYRYSGVPSRFSGSGSGTDFTLTISSLEAEDAATYYCQQYNSYPYMYTFGQGTKLEIK
notes: humanized
B3: Ab356 (antibody, V domains shown)
VH: EVQLVQSGAEVKKPGASVKLSCKASGYTFTSYWMHWVRQAPGQGLEWIGYIKPSSGYTKYNQKFKDKATLTADKSTSTAYMELRSLRSDDTAVYYCARDYYGSSSWFAYWGQGTLVTVSS
VL: EIVMTQSPAFLSVTPGEKVTITCKASQNVGTNVAWYQQKPDQAPKALIYSASYRYSGVPSRFSGSGSGTDFTLTISSLEAEDAATYYCQQYNSYPYMYTFGQGTKLEIK
notes: humanized
B4: Ab362 (antibody, V domains shown)
VH: EVQLVQSGAEVKKPGSSVKLSCKASGYTFSSYWMHWVKQAPGQGLEWIGYIKPSSGYTKYAQKFQGRVTLTADKSTSTAYMELSSLRSEDTAVYYCARDYYGSSSWFAYWGQGTLVTVSS
VL: EIVMTQSPAFLSVTPGEKVTITCKASQNVGTNVAWYQQKPDQAPKALIYSASYRYSGVPSRFSGSGSGTDFTLTISSLEAEDAATYYCQQYNSYPYMYTFGQGTKLEIK
notes: humanized
B5: Ab366 (antibody, V domains shown)
VH: EVQLVQSGAEVKKPGTSVKLSCKASGYTFTSYWMHWVRQARGQRLEWIGYIKPSSGYTKYAQKFQERVTLTADKSTSTAYMELSSLRSEDTAVYYCARDYYGSSSWFAYWGQGTLVTVSS
VL: DIVMTQSQAFMSVTVGEKVTITCKASQNVGTNVAWYQQKPDQAPKALIYSASYRYSGVPSRFSGSGSGTDFTLTISSLEAEDAATYYCQQYNSYPYMYTFGQGTKLEIK
notes: humanized
B6: Ab360 (antibody, V domains shown)
VH: EVQLVQSGAEVKKPGSSVKLSCKASGYTFTSYWMHWVRQAPGQGLEWIGYIKPSSGYTKYNQKFKDKATLTADKSTSTAYMELSSLRSEDTAVYYCARDYYGSSSWFAYWGQGTLVTVSS
VL: EIVMTQSPAFLSVTPGEKVTITCKASQNVGTNVAWYQQKPDQAPKALIYSASYRYSGVPSRFSGSGSGTDFTLTISSLEAEDAATYYCQQYNSYPYMYTFGQGTKLEIK
notes: humanized
B7: Ab361 (antibody, V domains shown)
VH: EVQLVQSGAEVKKPGSSVKVSCKASGYTFSSYWMHWVRQAPGQGLEWIGYIKPSSGYTKYNQKFKDKATLTADKSTSTAYMELSSLRSEDTAVYYCARDYYGSSSWFAYWGQGTLVTVSS
VL: EIVMTQSPAFLSVTPGEKVTITCKASQNVGTNVAWYQQKPDQAPKALIYSASYRYSGVPSRFSGSGSGTDFTLTISSLEAEDAATYYCQQYNSYPYMYTFGQGTKLEIK
notes: humanized
B8: Ab363 (antibody, V domains shown)
VH: QVQLVQSGAEVAKPGTSVKLSCKASGYTFTSYWMHWVKQAPGQGLEWIGYIKPSSGYTKYNQKFKDKVTLTADKSTSTAYMELSSLRSEDTAVYYCARDYYGSSSWFAYWGQGTLVTVSS
VL: DIVMTQSQAFMSVTVGEKVTITCKASQNVGTNVAWYQQKPDQAPKALIYSASYRYSGVPSRFSGSGSGTDFTLTISSLEAEDAATYYCQQYNSYPYMYTFGQGTKLEIK
notes: humanized
B9: Ab357 (antibody, V domains shown)
VH: EVQLVQSGAEVAKPGASVKLSCKASGYTFTSYWMHWVRQAPGQGLEWIGYIKPSSGYTKYNQKFKDKATLTADKSTSTAYMELRSLRSDDTAVYYCARDYYGSSSWFAYWGQGTLVTVSS
VL: EIVMTQSPAFLSVTPGEKVTITCKASQNVGTNVAWYQQKPDQAPKALIYSASYRYSGVPSRFSGSGSGTDFTLTISSLEAEDAATYYCQQYNSYPYMYTFGQGTKLEIK
notes: humanized
B10: Ab351 (antibody, V domains shown)
VH: QVQLVQSGAEVAKPGTSVKLSCKASGYTFTSYWMHWVKQAPGQGLEWIGYIKPSSGYTKYNQKFKDKVTLTADKSTSTAYMELSSLRSEDTAVYYCARDYYGSSSWFAYWGQGTLVTVSS
VL: EIVMTQSPAFLSVTPGEKVTITCKASQNVGTNVAWYQQKPDQAPKALIYSASYRYSGVPSRFSGSGSGTDFTLTISSLEAEDAATYYCQQYNSYPYMYTFGQGTKLEIK
notes: humanized
B11: Ab353 (antibody, V domains shown)
VH: EVQLVQSGAEVKKPGTSVKLSCKASGYTFTSSAMQWVKQAPGQGLEWIGYIKPSSGYTKYNQKFKDKATLTADKSTSTAYMELSSLRSEDTAVYYCARDYYGSSSWFAYWGQGTLVTVSS
VL: EIVMTQSPAFLSVTPGEKVTITCKASQNVGTNVAWYQQKPDQAPKALIYSASYRYSGVPSRFSGSGSGTDFTLTISSLEAEDAATYYCQQYNSYPYMYTFGQGTKLEIK
notes: humanized
B12: Ab358 (antibody, V domains shown)
VH: EVQLVQSGAEVKKPGASVKLSCKASGYTFTSYWMHWVRQAPGQGLEWIGYIKPSSGYTKYAQKLQGRVTLTADKSTSTAYMELRSLRSDDTAVYYCARDYYGSSSWFAYWGQGTLVTVSS
VL: EIVMTQSPAFLSVTPGEKVTITCKASQNVGTNVAWYQQKPDQAPKALIYSASYRYSGVPSRFSGSGSGTDFTLTISSLEAEDAATYYCQQYNSYPYMYTFGQGTKLEIK
notes: humanized
B13: Ab354 (antibody, V domains shown)
VH: EVQLVQSGAEVKKPGTSVKLSCKASGYTFTSYWMHWVRQARGQRLEWIGYIKPSSGYTKYAQKFQERVTLTADKSTSTAYMELSSLRSEDTAVYYCARDYYGSSSWFAYWGQGTLVTVSS
VL: EIVMTQSPAFLSVTPGEKVTITCKASQNVGTNVAWYQQKPDQAPKALIYSASYRYSGVPSRFSGSGSGTDFTLTISSLEAEDAATYYCQQYNSYPYMYTFGQGTKLEIK
notes: humanized
B14: Ab364 (antibody, V domains shown)
VH: EVQLVQSGPEVKKPGTSVKLSCKASGYTFTSYWMHWVRQARGQRLEWIGYIKPSSGYTKYNQKFKDRATLTADKSTSTAYMELSSLRSEDTAVYYCARDYYGSSSWFAYWGQGTLVTVSS
VL: DIVMTQSQAFMSVTVGEKVTITCKASQNVGTNVAWYQQKPDQAPKALIYSASYRYSGVPSRFSGSGSGTDFTLTISSLEAEDAATYYCQQYNSYPYMYTFGQGTKLEIK
notes: humanized
B15: Ab365 (antibody, V domains shown)
VH: EVQLVQSGAEVKKPGTSVKLSCKASGYTFTSSAMQWVKQAPGQGLEWIGYIKPSSGYTKYNQKFKDKATLTADKSTSTAYMELSSLRSEDTAVYYCARDYYGSSSWFAYWGQGTLVTVSS
VL: DIVMTQSQAFMSVTVGEKVTITCKASQNVGTNVAWYQQKPDQAPKALIYSASYRYSGVPSRFSGSGSGTDFTLTISSLEAEDAATYYCQQYNSYPYMYTFGQGTKLEIK
notes: humanized
B16: Ab367 (antibody, V domains shown)
VH: QVQLVQSGAEVAKPGASVKLSCKASGYTFTSYWMHWVKQAPGQGLEWIGYIKPSSGYTKYNQKFKDKATLTADKSTSTAYMELRSLRSDDTAVYYCARDYYGSSSWFAYWGQGTLVTVSS
VL: DIVMTQSQAFMSVTVGEKVTITCKASQNVGTNVAWYQQKPDQAPKALIYSASYRYSGVPSRFSGSGSGTDFTLTISSLEAEDAATYYCQQYNSYPYMYTFGQGTKLEIK
notes: humanized

These binders were tested against T1, purified ALK protein (BLitz, Table 20) (Homo sapiens (Human), UniProt Q9UM73 19-1038, limits assumed) (assay: BLI (BLitz), mAb on Protein A tip, purified ALK in solution).
T1 construct: also called purified ALK proteins
Description: Kinetic measurements of the monovalent affinity of the 96 humanized ALK antibody variants (Ab351-Ab446) were collected. Affinity ranking was performed using a BLitz® System (ForteBio, Menlo Park, Calif.). Humanized anti-ALK antibodies were immobilized at 0.5 mg/mL using Protein A tips. Once baseline stability was ensured, purified ALK proteins at 70 μg/mL were added. The resulting kinetic data were fit to a single binding site equation, from which the quoted monovalent KD values were derived.

T1 sequence (Q9UM73 19-1038 limits assumed): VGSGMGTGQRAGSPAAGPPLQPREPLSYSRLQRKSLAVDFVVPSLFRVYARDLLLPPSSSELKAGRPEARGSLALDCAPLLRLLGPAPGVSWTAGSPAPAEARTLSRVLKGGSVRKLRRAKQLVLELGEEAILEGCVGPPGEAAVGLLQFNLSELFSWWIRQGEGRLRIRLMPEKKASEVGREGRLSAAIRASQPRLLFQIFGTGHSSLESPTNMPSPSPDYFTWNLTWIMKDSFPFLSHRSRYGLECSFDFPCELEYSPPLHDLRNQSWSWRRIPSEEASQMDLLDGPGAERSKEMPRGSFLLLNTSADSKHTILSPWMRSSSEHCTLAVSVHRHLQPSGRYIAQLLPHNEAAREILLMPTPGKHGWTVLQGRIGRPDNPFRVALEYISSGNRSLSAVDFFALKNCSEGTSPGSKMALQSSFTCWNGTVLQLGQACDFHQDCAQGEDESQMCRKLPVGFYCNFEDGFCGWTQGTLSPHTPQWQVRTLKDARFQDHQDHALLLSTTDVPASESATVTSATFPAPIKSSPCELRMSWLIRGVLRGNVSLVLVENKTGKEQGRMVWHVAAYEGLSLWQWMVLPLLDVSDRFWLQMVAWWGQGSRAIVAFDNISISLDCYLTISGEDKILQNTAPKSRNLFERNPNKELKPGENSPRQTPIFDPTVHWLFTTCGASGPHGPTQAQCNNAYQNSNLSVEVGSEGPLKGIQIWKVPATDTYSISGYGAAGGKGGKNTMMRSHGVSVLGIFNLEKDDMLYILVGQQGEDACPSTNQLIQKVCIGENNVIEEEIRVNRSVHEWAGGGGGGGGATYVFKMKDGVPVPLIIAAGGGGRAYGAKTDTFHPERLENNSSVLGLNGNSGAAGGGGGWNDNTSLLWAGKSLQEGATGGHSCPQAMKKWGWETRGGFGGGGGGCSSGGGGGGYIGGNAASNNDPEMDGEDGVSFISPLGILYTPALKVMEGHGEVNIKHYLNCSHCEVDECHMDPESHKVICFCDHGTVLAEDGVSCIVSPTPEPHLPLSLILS

Row | Binder | Kd [nM]
1 | B1 | 201
2 | B2 | 100
3 | B3 | 128
4 | B4 | 149
5 | B5 | 219
6 | B6 | 137
7 | B7 | 153
8 | B8 | 119
9 | B9 | 147
10 | B10 | 120
11 | B11 | 384
12 | B12 | 118
13 | B13 | 133
14 | B14 | 128
15 | B15 | 1490
16 | B16 | 114
